Key:
mouse CCL21 = biological target: T1, mouse CCL21 (mouse, UniProt P84444 24-133); assay: slot blot of human and mouse CCL21 protein probed with the monoclonal antibody
T1 construct: also called murine CCL21
T1 sequence (looked up): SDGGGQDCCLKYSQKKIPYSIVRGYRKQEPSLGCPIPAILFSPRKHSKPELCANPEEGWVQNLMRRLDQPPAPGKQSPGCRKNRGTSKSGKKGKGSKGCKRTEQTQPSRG

human chemokine CCL19 = biological target: T2, human chemokine CCL19 (human, UniProt Q99731 22-98); assay: western blot of human CCL19 and human CCL21 probed with the monoclonal antibody
T2 sequence (looked up): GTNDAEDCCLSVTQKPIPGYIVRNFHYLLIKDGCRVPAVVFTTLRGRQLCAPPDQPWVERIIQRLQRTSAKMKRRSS

[1] = biological target: T3, human CCL21 (chemokine (C-C motif) ligand 21) (human, UniProt O00585 24-134); assay: western blot of human CCL21 protein probed with hybridoma supernatant ('Supernatent BalbC (1:10)')
T3 construct: The same entry is used for native CCL21 stained in tissue; also called hCCL21; rhCCL21
T3 sequence (looked up): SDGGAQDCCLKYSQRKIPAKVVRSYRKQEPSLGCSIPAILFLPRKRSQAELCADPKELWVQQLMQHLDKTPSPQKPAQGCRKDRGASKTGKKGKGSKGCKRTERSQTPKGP

CCL21 pep 1 = biological target: T4, CCL21 pep 1; assay: slot blot; each lane holds only CCL21, pep 1 or pep 2 in the amount printed, probed with the monoclonal antibody (the legend calls it a competition)
T4 construct: One of the two peptides behind r1 of the first reading
T4 peptide: SLLILVLAFGIPR

CCL21 pep 2 = biological target: T5, CCL21 pep 2; assay: as above
T5 construct: One of the two peptides behind r1 of the first reading
T5 peptide: KYSQRKIPAKVVR

B1: anti-CCL21 murine monoclonal antibody Clone #8 (C8) (antibody, V domains shown)
VH: EVQLQQSGAEIVRSGASVRLSCTASGFNIKDFYLNWVKQRPEQGLDWIGWIDPENGDTEYAPKFQGKATMTADTSSNTIYLHLSSLTSEDTAVYYCNAFDYDYWGQGTTLTVSS
VL: DIQMNQSPSSLSASLGDTVTITCHASQNINVWLSWYQQKPGNIPKLLIYKASNLHTGVPSRFSGSGSGTGFTLTISSLHPEDIATYYCHQGHSFPLTFGAGTKLELK
notes: Mouse monoclonal from immunized BALB/C mice; also called anti-CCL21 C8
B1: no binding (tested: 1.0 µg) (mouse CCL21); no binding (tested: 100 ng) (human chemokine CCL19); binds [1]. B1: binds (CCL21 pep 1); no binding (tested: 1.0 µg) (CCL21 pep 2).

Reference: patent US20240018228A1 (University of Texas, published 2024)
